Test results from PMC5529588.
pKd: −log10 of the molar value.

What was measured:
[1] = molecular target: actin filaments (rabbit muscle actin, polymerized) (rabbit) (UniProt P68135); experiment: co-sedimentation; high-speed cosedimentation; 3 uM actin (AFs) with 0.25-8 uM FH1FH2; bound against free protein fitted with a hyperbolic function; three independent experiments; methods in the supplement
[2] = molecular target: microtubules (porcine brain tubulin, taxol-stabilized) (porcine) (UniProt P02550); experiment: co-sedimentation; high-speed cosedimentation; 1 uM tubulin (MTs) with 1-12 uM FH1FH2; bound against free protein fitted with a hyperbolic function; methods in the supplement

Chain of OsFH15 FH2 (truncated recombinant protein containing the FH2 domain of OsFH15) (Q69MT2 340-768): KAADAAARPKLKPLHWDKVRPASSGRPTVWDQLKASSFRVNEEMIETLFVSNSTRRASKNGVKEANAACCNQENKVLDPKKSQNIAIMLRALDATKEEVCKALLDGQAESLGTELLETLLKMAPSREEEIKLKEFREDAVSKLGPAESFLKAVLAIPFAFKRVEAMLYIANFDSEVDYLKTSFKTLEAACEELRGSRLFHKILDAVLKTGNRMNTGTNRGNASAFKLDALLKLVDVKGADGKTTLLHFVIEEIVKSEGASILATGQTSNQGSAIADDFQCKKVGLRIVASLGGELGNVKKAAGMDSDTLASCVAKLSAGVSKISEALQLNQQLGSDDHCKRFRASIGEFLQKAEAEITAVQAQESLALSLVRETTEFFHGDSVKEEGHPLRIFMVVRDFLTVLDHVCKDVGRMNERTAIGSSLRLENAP

pKd [1]	pKd [2]	Substance
6.09	5.99	OsFH15 FH1FH2 (truncated recombinant protein containing the FH1FH2 domain of OsFH15) (domain or fragment)
–	5.74	OsFH15 FH2 (truncated recombinant protein containing the FH2 domain of OsFH15) (from UniProt Q69MT2 340-768) (domain or fragment)
